Measurements published in IntAct's records for PubMed 21102411.

B1: Peroxisomal biogenesis factor 19 (Homo sapiens), P40855 (parent)
chain: MAAAEEGCSVGAEADRELEELLESALDDFDKAKPSPAPPSTTTAPDASGPQKRSPGDTAKDALFASQEKFFQELFDSELASQATAEFEKAMKELAEEEPHLVEQFQKLSEAAGRVGSDMTSQQEFTSCLKETLSGLAKNATDLQNSSMSEEELTKAMEGLGMDEGDGEGNILPIMQSIMQNLLSKDVLYPSLKEITEKYPEWLQSHRESLPPEQFEKYQEQHSVMCKICEQFEAETPTDSETTQKARFEMVLDLMQQLQDLGHPPKELAGEMPPGLNFDLDALNLSGPPGASGEQCLIM
partner: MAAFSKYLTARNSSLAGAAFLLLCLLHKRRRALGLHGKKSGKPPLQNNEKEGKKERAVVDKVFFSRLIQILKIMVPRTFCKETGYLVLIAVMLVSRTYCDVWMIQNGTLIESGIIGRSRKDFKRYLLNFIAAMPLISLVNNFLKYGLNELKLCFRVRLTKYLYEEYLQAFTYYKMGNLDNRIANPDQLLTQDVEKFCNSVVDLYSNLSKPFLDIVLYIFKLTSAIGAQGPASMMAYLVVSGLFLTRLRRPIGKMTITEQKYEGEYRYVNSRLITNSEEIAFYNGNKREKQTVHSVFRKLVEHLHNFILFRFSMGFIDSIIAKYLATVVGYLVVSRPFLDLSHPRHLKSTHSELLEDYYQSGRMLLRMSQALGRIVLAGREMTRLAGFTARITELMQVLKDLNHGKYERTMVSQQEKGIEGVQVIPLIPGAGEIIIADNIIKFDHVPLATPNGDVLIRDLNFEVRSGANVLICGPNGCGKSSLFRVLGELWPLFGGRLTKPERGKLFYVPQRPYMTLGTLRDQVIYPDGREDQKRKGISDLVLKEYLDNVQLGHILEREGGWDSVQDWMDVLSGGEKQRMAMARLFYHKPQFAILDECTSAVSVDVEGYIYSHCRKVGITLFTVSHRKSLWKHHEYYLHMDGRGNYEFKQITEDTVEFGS
B2: Peroxisomal biogenesis factor 19 (Homo sapiens), P40855 (parent)
chain: B1 chain
partner: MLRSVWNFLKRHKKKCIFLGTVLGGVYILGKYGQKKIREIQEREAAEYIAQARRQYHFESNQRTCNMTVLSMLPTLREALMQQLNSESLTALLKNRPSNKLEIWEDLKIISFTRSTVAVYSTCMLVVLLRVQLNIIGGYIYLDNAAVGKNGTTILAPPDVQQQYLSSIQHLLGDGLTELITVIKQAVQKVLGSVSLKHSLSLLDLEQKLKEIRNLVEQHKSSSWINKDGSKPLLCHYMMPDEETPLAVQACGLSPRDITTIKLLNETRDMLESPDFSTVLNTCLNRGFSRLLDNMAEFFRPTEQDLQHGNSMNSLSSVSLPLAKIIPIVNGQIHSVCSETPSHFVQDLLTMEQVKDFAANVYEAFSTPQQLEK

Variants of: B1
Conditions: with abcd3_human ABCD3, P28288

effect of a mutation on the interaction	Variant
disrupting interaction	MAAAEEGCSVGAEADRELEELLESALDDADKAKPSPAPPSTTTAPDASGPQKRSPGDTAKDALFASQEKFFQELFDSELASQATAEFEKAMKELAEEEPHLVEQFQKLSEAAGRVGSDMTSQQEFTSCLKETLSGLAKNATDLQNSSMSEEELTKAMEGLGMDEGDGEGNILPIMQSIMQNLLSKDVLYPSLKEITEKYPEWLQSHRESLPPEQFEKYQEQHSVMCKICEQFEAETPTDSETTQKARFEMVLDLMQQLQDLGHPPKELAGEMPPGLNFDLDALNLSGPPGASGEQCLIM [F29A]

Variants of: B1
Conditions: with abcd3_human ABCD3, P28288
Remark: another data set of the same source

effect of a mutation on the interaction	Variant
disrupting interaction	MAAAEEGCSVGAEADRELEELAESALDDFDKAKPSPAPPSTTTAPDASGPQKRSPGDTAKDALFASQEKFFQELFDSELASQATAEFEKAMKELAEEEPHLVEQFQKLSEAAGRVGSDMTSQQEFTSCLKETLSGLAKNATDLQNSSMSEEELTKAMEGLGMDEGDGEGNILPIMQSIMQNLLSKDVLYPSLKEITEKYPEWLQSHRESLPPEQFEKYQEQHSVMCKICEQFEAETPTDSETTQKARFEMVLDLMQQLQDLGHPPKELAGEMPPGLNFDLDALNLSGPPGASGEQCLIM [L22A]

Variants of: B2
Conditions: with pex3_human PEX3, P56589

effect of a mutation on the interaction	Variant
disrupting interaction	MAAAEEGCSVGAEADRELEELLESALDDADKAKPSPAPPSTTTAPDASGPQKRSPGDTAKDALFASQEKFFQELFDSELASQATAEFEKAMKELAEEEPHLVEQFQKLSEAAGRVGSDMTSQQEFTSCLKETLSGLAKNATDLQNSSMSEEELTKAMEGLGMDEGDGEGNILPIMQSIMQNLLSKDVLYPSLKEITEKYPEWLQSHRESLPPEQFEKYQEQHSVMCKICEQFEAETPTDSETTQKARFEMVLDLMQQLQDLGHPPKELAGEMPPGLNFDLDALNLSGPPGASGEQCLIM [F29A]

Variants of: B2
Conditions: with pex3_human PEX3, P56589
Remark: another data set of the same source

effect of a mutation on the interaction	Variant
disrupting interaction	MAAAEEGCSVGAEADRELEELAESALDDFDKAKPSPAPPSTTTAPDASGPQKRSPGDTAKDALFASQEKFFQELFDSELASQATAEFEKAMKELAEEEPHLVEQFQKLSEAAGRVGSDMTSQQEFTSCLKETLSGLAKNATDLQNSSMSEEELTKAMEGLGMDEGDGEGNILPIMQSIMQNLLSKDVLYPSLKEITEKYPEWLQSHRESLPPEQFEKYQEQHSVMCKICEQFEAETPTDSETTQKARFEMVLDLMQQLQDLGHPPKELAGEMPPGLNFDLDALNLSGPPGASGEQCLIM [L22A]

Variants of: B2
Conditions: with pex3_human PEX3, P56589
Remark: another data set of the same source

effect of a mutation on the interaction	Variant
disrupting interaction	MAAAEEGCSVGAEADRELEEALESALDDFDKAKPSPAPPSTTTAPDASGPQKRSPGDTAKDALFASQEKFFQELFDSELASQATAEFEKAMKELAEEEPHLVEQFQKLSEAAGRVGSDMTSQQEFTSCLKETLSGLAKNATDLQNSSMSEEELTKAMEGLGMDEGDGEGNILPIMQSIMQNLLSKDVLYPSLKEITEKYPEWLQSHRESLPPEQFEKYQEQHSVMCKICEQFEAETPTDSETTQKARFEMVLDLMQQLQDLGHPPKELAGEMPPGLNFDLDALNLSGPPGASGEQCLIM [L21A]

Variants of: B2
Conditions: with pex3_human PEX3, P56589
Remark: another data set of the same source

effect of a mutation on the interaction	Variant
decreasing interaction	MAAAEEGCSVGAEADRELEEALESALDDFDKAKPSPAPPSTTTAPDASGPQKRSPGDTAKDALFASQEKFFQELFDSELASQATAEFEKAMKELAEEEPHLVEQFQKLSEAAGRVGSDMTSQQEFTSCLKETLSGLAKNATDLQNSSMSEEELTKAMEGLGMDEGDGEGNILPIMQSIMQNLLSKDVLYPSLKEITEKYPEWLQSHRESLPPEQFEKYQEQHSVMCKICEQFEAETPTDSETTQKARFEMVLDLMQQLQDLGHPPKELAGEMPPGLNFDLDALNLSGPPGASGEQCLIM [L21A]

Variants of: B2
Conditions: with pex3_human PEX3, P56589
Remark: another data set of the same source

effect of a mutation on the interaction	Variant
decreasing interaction	MAAAEEGCSVGAEADRELEELLESALDAFDKAKPSPAPPSTTTAPDASGPQKRSPGDTAKDALFASQEKFFQELFDSELASQATAEFEKAMKELAEEEPHLVEQFQKLSEAAGRVGSDMTSQQEFTSCLKETLSGLAKNATDLQNSSMSEEELTKAMEGLGMDEGDGEGNILPIMQSIMQNLLSKDVLYPSLKEITEKYPEWLQSHRESLPPEQFEKYQEQHSVMCKICEQFEAETPTDSETTQKARFEMVLDLMQQLQDLGHPPKELAGEMPPGLNFDLDALNLSGPPGASGEQCLIM [D28A]

Variants of: B2
Conditions: with pex3_human PEX3, P56589
Remark: another data set of the same source

effect of a mutation on the interaction	Variant
decreasing interaction	MAAAEEGCSVGAEADRELEELLESAADDFDKAKPSPAPPSTTTAPDASGPQKRSPGDTAKDALFASQEKFFQELFDSELASQATAEFEKAMKELAEEEPHLVEQFQKLSEAAGRVGSDMTSQQEFTSCLKETLSGLAKNATDLQNSSMSEEELTKAMEGLGMDEGDGEGNILPIMQSIMQNLLSKDVLYPSLKEITEKYPEWLQSHRESLPPEQFEKYQEQHSVMCKICEQFEAETPTDSETTQKARFEMVLDLMQQLQDLGHPPKELAGEMPPGLNFDLDALNLSGPPGASGEQCLIM [L26A]

Variants of: B2
Conditions: with pex3_human PEX3, P56589
Remark: another data set of the same source

effect of a mutation on the interaction	Variant
disrupting interaction	MAAAEEGCSVGAEADREAEELLESALDDFDKAKPSPAPPSTTTAPDASGPQKRSPGDTAKDALFASQEKFFQELFDSELASQATAEFEKAMKELAEEEPHLVEQFQKLSEAAGRVGSDMTSQQEFTSCLKETLSGLAKNATDLQNSSMSEEELTKAMEGLGMDEGDGEGNILPIMQSIMQNLLSKDVLYPSLKEITEKYPEWLQSHRESLPPEQFEKYQEQHSVMCKICEQFEAETPTDSETTQKARFEMVLDLMQQLQDLGHPPKELAGEMPPGLNFDLDALNLSGPPGASGEQCLIM [L18A]

Variants of: B2
Conditions: with pex3_human PEX3, P56589
Remark: another data set of the same source

effect of a mutation on the interaction	Variant
decreasing interaction	MAAAEEGCSVGAEADREAEELLESALDDFDKAKPSPAPPSTTTAPDASGPQKRSPGDTAKDALFASQEKFFQELFDSELASQATAEFEKAMKELAEEEPHLVEQFQKLSEAAGRVGSDMTSQQEFTSCLKETLSGLAKNATDLQNSSMSEEELTKAMEGLGMDEGDGEGNILPIMQSIMQNLLSKDVLYPSLKEITEKYPEWLQSHRESLPPEQFEKYQEQHSVMCKICEQFEAETPTDSETTQKARFEMVLDLMQQLQDLGHPPKELAGEMPPGLNFDLDALNLSGPPGASGEQCLIM [L18A]
